Measurements: patent publication US9995740B2, “Method of determining temperature and method of detecting a target peptide” (SYSMEX CORPORATION, priority 2015, dated 2018)
Residues, ends and D or L forms follow the SMILES beside them. No end group written: not given here.

Columns and labels:
[1] = Isoelectric point (pI) of the peptides of Table 3; assay type: physicochemical
HSA [2] = target: T1, HSA (Homo sapiens, UniProt P02768); assay: Hydrothermal treatment in the presence of HSA or serum, partition of peptide between supernatant and insoluble fraction (SDS-PAGE, fluorescence image); conditions: for band derived from the peptide in supernatant of hydrothermally-treated sample: SDS-PAGE fluorescence image
T1 construct: purchased Sigma-Aldrich Co. LLC

HSA [3] = target: T1, HSA; assay: Kd of TMR-labeled peptide for HSA by fluorescence intensity difference and Hill's equation; assay type: binding; conditions: for suitability as linker peptide of the peptide for temperature determination (FIG. 8): classified by Kd for HSA, 500 μM or more = suitable
Procedure: Each of the resulting mixtures was subjected to measurement with a spectrophotofluorometer [product name: F-7000, manufactured by Hitachi High-Technologies Corporation] and the fluorescence intensity with an excitation wavelength of 540 nm and a fluorescence wavelength of 580 nm (hereinafter, referred to as “fluorescence intensity A”) was measured.
Each of the resulting mixtures was subjected to measurement with a spectrophotofluorometer [product name: F-7000, manufactured by Hitachi High-Technologies Corporation] and the fluorescence intensity with an excitation wavelength of 540 nm and a fluorescence wavelength of 580 nm (hereinafter, referred to as “fluorescence intensity B”) was measured.
Equation (I): Difference between fluorescence intensities=fluorescence intensity A−fluorescence intensity B (I)
A difference between the fluorescence intensities was determined in accordance with the above equation.

[4] = heat transfer 200° C. for 40 minutes, in the presence of HSA (300 or 600 μM), phosphate buffered saline
[5] = microwave hydrothermal treatment 160° C., in the presence of HSA

Compound	pI [1]	suitability as linker peptide of the peptide for temperature determination (FIG. 8) (HSA [3])	other results
β-amyloid (1-42): SEQ ID NO: 2, 42 amino acid residues	5.3		
TMR-labeled HSA 599-609 fragment: HSA 599-609 fragment labeled with tetramethyl rhodamine (TMR) (LVAASQAALGL; also: tetramethyl rhodamine (TMR) label, position not given here)			band derived from the peptide in supernatant of hydrothermally-treated sample (HSA [2]; [4]): observed
(His)3: SEQ ID NO: 11, 3 amino acid residues (HHH; Synthetic sequence of (His)3)	7		
ACTH (2-16): SEQ ID NO: 10, 15 amino acid residues (YSMEHFRWGKPVGKK; Synthetic sequence of ACTH (2-16))	10		
Colistin		suitable	
(Gly) 10: SEQ ID NO: 20, 10 amino acid residues	5.5	suitable	
C-peptide: SEQ ID NO: 31, 31 amino acid residues (EAEDLQVGQVELGGGPGAGSLQPLALEGSLQ; Synthetic sequence of C-peptide)	3.5	suitable	
Fibrinogen α: SEQ ID NO: 12, 25 amino acid residues (DEAGSEADHEGTHSTKRGHAKSRPV; Synthetic sequence of Fibrinogen alpha)	6.3		
Brain natriuretic peptide [BNP]	11	suitable	
TMR-labeled ACTH (1-24): ACTH (1-24) labeled with tetramethyl rhodamine (TMR)			band derived from the peptide in supernatant of hydrothermally-treated sample (HSA [2]; [5]): not observed
HSA 599-609 fragment: SEQ ID NO: 30, 11 amino acid residues (LVAASQAALGL; Synthetic sequence of HSA599-609)	5.5	suitable	
Cp6: SEQ ID NO: 22, 8 amino acid residues (DIGEEFNQ; Synthetic sequence of Cp6)	3.6	suitable	
ACTH (1-41): SEQ ID NO: 17, 41 amino acid residues (GPSYSMEHFRWGKPVGKKRRPVKVYPNGAEDESAEAFPLEF; Synthetic sequence of ACTH (1-41))	8.3	suitable	
Kininogen: SEQ ID NO: 7, 19 amino acid residues (HNLGHGHKHERDQGHGHQR; Synthetic sequence of Kininorgen)	8.8		
C4a: SEQ ID NO: 23, 15 amino acid residues (NGFKSHALQLNNRQI; Synthetic sequence of C4a) [Peptide C4a]	11	suitable	
Dynorphin A (YGGFLRRIRPKLK; Synthetic sequence of Dynorphin A)	11.7	suitable	
HSA 237-249 fragment: SEQ ID NO: 26, 13 amino acid residues (AWAVARLSQRFPK; Synthetic sequence of HSA237-249)	12	suitable	
TMR-labeled ACTH (1-39): ACTH (1-39) labeled with tetramethyl rhodamine (TMR) (SYSMEHFRWGKPVGKKRRPVKVYPNAGENESAEAFPLEF; also: tetramethyl rhodamine (TMR) label, position not given here)			band derived from the peptide in supernatant of hydrothermally-treated sample (HSA [2]; [5]): observed
lqp: SEQ ID NO: 13, 12 amino acid residues (GKYFNAAEYHAQ; Synthetic sequence of lqp)	6.8		
β-amyloid (1-40): SEQ ID NO: 1, 40 amino acid residues	5.3		
(Glu) 10: SEQ ID NO: 18, 10 amino acid residues	3.5	suitable	
Blood coagulation factor XIII (Factor XIII): SEQ ID NO: 15, 25 amino acid residues (AVPPNNSNAAEDDLPTVELQGVVPR; Synthetic sequence of Factor XIII)	3.9		
CC[C@H](C)[C@H](NC(=O)[C@H](CCC(=O)O)NC(=O)[C@H](CC(=O)O)NC(=O)[C@@H](NC(=O)[C@H](CS)NC(=O)[C@H](CC(C)C)NC(=O)[C@@H]1CCCN1C(=O)[C@H](CCCNC(=N)N)NC(=O)[C@H](Cc1c[nH]c2ccccc12)NC(=O)CNC(=O)[C@H](CS)NC(=O)[C@H](CC(C)C)NC(=O)[C@H](Cc1c[nH]c2ccccc12)NC(=O)[C@H](CCC(=O)O)NC(=O)[C@H](CC(=O)O)NC(=O)[C@@H](N)CC(=O)O)[C@@H](C)CC)C(=O)N[C@@H](CC(C)C)C(=O)N[C@@H](CCCNC(=N)N)C(=O)O [SA21] (H-DDEWLCGWRPLCIDEILR-OH; N-terminus and C-terminus assumed)			Kd (HSA [3]; TMR-labeled peptide, phosphate buffered saline, excitation 540 nm / fluorescence 580 nm): < 500 µM
ITIH4: SEQ ID NO: 28, 21 amino acid residues (NVHSAGAAGSRMNFRPGVLSS; Synthetic sequence of ITIH4)	12	suitable	
TMR-labeled SA21: SA21 labeled with tetramethyl rhodamine; used as peptide for phase partition determination (DDEWLCGWRPLCIDEILR; cysteine pairing not given here; also: tetramethyl rhodamine (TMR) label, position not given here)			partition of peptide after hydrothermal treatment (HSA [2]; 160° C., serum-containing sample M, observed under visible light): transferred to the insoluble fraction; band derived from the peptide in supernatant of hydrothermally-treated sample (HSA [2]; [4]): light band
ACTH (7-11): SEQ ID NO: 5, 5 amino acid residues (FRWGK; Synthetic sequence of ACTH (7-11))	11		
(Lys)10: SEQ ID NO: 6, 10 amino acid residues (KKKKKKKKKK; Synthetic sequence of (Lys)10)	11		
(Arg) 10: SEQ ID NO: 21, 10 amino acid residues	13	suitable	
Glucagon (1-29): SEQ ID NO: 4, 29 amino acid residues	6.8		
CSCC[C@H](NC(=O)[C@H](CO)NC(=O)[C@H](Cc1ccc(O)cc1)NC(=O)[C@@H](N)CO)C(=O)N[C@@H](CCC(=O)O)C(=O)N[C@@H](Cc1c[nH]cn1)C(=O)N[C@@H](Cc1ccccc1)C(=O)N[C@@H](CCCNC(=N)N)C(=O)N[C@@H](Cc1c[nH]c2ccccc12)C(=O)NCC(=O)N[C@@H](CCCCN)C(=O)N1CCC[C@H]1C(=O)N[C@H](C(=O)NCC(=O)N[C@@H](CCCCN)C(=O)N[C@@H](CCCCN)C(=O)N[C@@H](CCCNC(=N)N)C(=O)N[C@@H](CCCNC(=N)N)C(=O)N1CCC[C@H]1C(=O)N[C@H](C(=O)N[C@@H](CCCCN)C(=O)N[C@H](C(=O)N[C@@H](Cc1ccc(O)cc1)C(=O)N1CCC[C@H]1C(=O)N[C@@H](CC(N)=O)C(=O)N[C@@H](C)C(=O)NCC(=O)N[C@@H](CCC(=O)O)C(=O)N[C@@H](CC(N)=O)C(=O)N[C@@H](CCC(=O)O)C(=O)N[C@@H](CO)C(=O)N[C@@H](C)C(=O)N[C@@H](CCC(=O)O)C(=O)N[C@@H](C)C(=O)N[C@@H](Cc1ccccc1)C(=O)N1CCC[C@H]1C(=O)N[C@@H](CC(C)C)C(=O)N[C@@H](CCC(=O)O)C(=O)N[C@@H](Cc1ccccc1)C(=O)O)C(C)C)C(C)C)C(C)C [ACTH (1-39), Adrenocorticotropic hormone (ACTH) (1-39)] (H-SYSMEHFRWGKPVGKKRRPVKVYPNAGENESAEAFPLEF-OH; N-terminus and C-terminus assumed)	9.3	suitable	
